Patent US20240352070

Target: T1, FRET substrate peptide KLRMKLPKP
T1 chain: KLRMKLPKP

B1: human cathepsin S wild-type, amino acids 17 to 331, C-terminal His-tag (CTSS-His) (protein)
chain: LPDSVDWREKGCVTEVKYQGSCGACWAFSAVGALEAQLKLKTGKLVSLSAQNLVDCSTEKYGNKGCNGGFMTTAFQYIIDNKGIDSDASYPYKAMDQKCQYDSKYRAATCSKYTELPYGREDVLKEAVANKGPVSVGVDARHPSFFLYRSGVYYEPSCTQNVNHGVLVVGYGDLNGKEYWLVKNSWGHNFGEEGYIRMARNKGNHCGIASFPSYPEI
Question: How did the “cleavage in FRET assay” value turn out when B1 was run?
Answer: validating the identified peptide by showing in a FRET assay that it is cleaved by cathepsin S
